{"source": "paper PMC8417749", "origin": "cited, not measured here", "key": {"CXCR2 (Homo sapiens)": {"target": "CXCR2 (Homo sapiens) (UniProt P25025)", "sequence (P25025 whole entry)": "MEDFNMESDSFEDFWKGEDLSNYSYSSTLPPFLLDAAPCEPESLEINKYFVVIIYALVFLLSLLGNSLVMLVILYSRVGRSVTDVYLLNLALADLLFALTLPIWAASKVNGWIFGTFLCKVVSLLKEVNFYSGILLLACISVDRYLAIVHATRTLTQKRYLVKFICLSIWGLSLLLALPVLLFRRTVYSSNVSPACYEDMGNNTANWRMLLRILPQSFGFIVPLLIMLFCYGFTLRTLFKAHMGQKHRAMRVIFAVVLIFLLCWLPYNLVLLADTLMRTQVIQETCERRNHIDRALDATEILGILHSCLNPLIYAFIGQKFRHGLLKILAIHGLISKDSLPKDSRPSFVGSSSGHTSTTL"}, "CXCR1 (Homo sapiens)": {"target": "CXCR1 (Homo sapiens) (UniProt P25024)", "sequence (P25024 whole entry)": "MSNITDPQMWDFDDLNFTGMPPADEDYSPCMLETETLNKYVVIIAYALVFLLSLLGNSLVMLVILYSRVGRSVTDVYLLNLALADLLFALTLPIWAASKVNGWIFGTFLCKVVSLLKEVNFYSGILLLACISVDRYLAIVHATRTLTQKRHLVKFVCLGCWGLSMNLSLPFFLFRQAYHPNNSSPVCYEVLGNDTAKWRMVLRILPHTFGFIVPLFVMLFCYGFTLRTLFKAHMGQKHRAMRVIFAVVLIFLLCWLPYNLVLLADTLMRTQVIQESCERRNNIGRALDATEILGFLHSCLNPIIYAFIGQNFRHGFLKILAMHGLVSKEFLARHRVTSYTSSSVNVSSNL"}}}
{"substance": "IL-8 (from UniProt P10145)", "values": [{"measurement": "Kd", "setting": "CXCR2 (Homo sapiens)", "value": 2, "unit": "nM"}, {"measurement": "Kd", "setting": "CXCR1 (Homo sapiens)", "value": 2, "unit": "nM"}]}
